Tests used:
[1] = biological target: T1, CD19 (细胞表面CD19, Raji细胞) (UniProt P15391 20-556, limits assumed); test: cell-based or functional assay
T1 sequence (looked up): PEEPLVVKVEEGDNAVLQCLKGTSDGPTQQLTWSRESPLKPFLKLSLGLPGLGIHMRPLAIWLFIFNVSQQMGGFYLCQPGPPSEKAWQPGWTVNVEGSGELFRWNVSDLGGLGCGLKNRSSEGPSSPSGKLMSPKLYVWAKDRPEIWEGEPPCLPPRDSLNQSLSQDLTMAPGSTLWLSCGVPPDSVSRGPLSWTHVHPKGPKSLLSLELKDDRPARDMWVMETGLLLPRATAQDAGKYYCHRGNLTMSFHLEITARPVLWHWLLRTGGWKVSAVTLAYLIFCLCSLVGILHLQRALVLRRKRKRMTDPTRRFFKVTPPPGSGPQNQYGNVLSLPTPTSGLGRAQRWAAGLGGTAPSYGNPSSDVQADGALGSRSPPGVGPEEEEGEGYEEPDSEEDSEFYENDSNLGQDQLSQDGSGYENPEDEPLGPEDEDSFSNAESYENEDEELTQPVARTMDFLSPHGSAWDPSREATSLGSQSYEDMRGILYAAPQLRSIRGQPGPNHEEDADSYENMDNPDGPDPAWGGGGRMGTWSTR

[2] = biological target: T1, CD19 (细胞表面CD19, Raji细胞); test: flow cytometry on Raji cells, Alexa488 anti-human IgG-Fc, MFI fitted in GraphPad Prism
[3] = biological target: T2, CD3 (细胞表面CD3, Jurkat细胞); test: flow cytometry on Jurkat cells, Alexa488 anti-human IgG-Fc, MFI fitted in GraphPad Prism
T2 construct: whole, on cells; also called CD3抗原; CD3阳性的Jurkat细胞
T2 sequence (P07766 23-207): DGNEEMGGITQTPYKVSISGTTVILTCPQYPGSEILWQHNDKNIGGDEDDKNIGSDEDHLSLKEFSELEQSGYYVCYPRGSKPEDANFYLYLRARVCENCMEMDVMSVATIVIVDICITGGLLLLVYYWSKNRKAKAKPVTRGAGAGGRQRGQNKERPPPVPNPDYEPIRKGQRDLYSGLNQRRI

Binder	EC50 of PBMC-mediated killing of Raji cells (LDH release) [1] [nM]	EC50 [2] [nM]	EC50 [3] [nM]
抗CD3和抗CD19双特异性抗体JY039 (bispecific antibody) chain 1: not shown chain 2: not shown chain 3: QVQLQQSGAELVRPGSSVKISCKASGYAFSSYWMNWVKQRPGQGLEWIGQIWPGDGDTNYNGKFKGKATLTADESSSTAYMQLSSLASEDSAVYFCARRETTTVGRYYYAMDYWGQGTTVTVSS chain 4: DIQLTQSPASLAVSLGQRATISCKASQSVDYDGDSYLNWYQQIPGQPPKLLIYDASNLVSGIPPRFSGSGSGTDFTLNIHPVEKVDAATYHCQQSTEDPWTFGGGTKLEIK	0.00126	1.02	21.6
抗CD19的单克隆抗体 (JY039的抗CD19序列构建) (antibody, V domains shown, also called AntiCD19McAb; 抗CD19单克隆抗体) VH: QVQLQQSGAELVRPGSSVKISCKASGYAFSSYWMNWVKQRPGQGLEWIGQIWPGDGDTNYNGKFKGKATLTADESSSTAYMQLSSLASEDSAVYFCARRETTTVGRYYYAMDYWGQGTTVTVSS VL: DIQLTQSPASLAVSLGQRATISCKASQSVDYDGDSYLNWYQQIPGQPPKLLIYDASNLVSGIPPRFSGSGSGTDFTLNIHPVEKVDAATYHCQQSTEDPWTFGGGTKLEIK	0.222	0.191	–

— CN110623921A (BEIJING DONGFANG BIOTECH CO LTD, dated 2019)
